Molecular target: the molecule itself
Test: crystal structure; p-IRE1α (15 mg/mL) co-crystallised with 1 mM IA107; hanging drop, 0.05 M bicine pH 9.0, 36% PEG300, 0.12 M NaCl, 20 °C; four copies in the asymmetric unit

B1: phosphorylated human IRE1α kinase and RNase domain (residues 547–977) (domain or fragment, UniProt O75460 547-977, looked up)
chain: GSSPSLEQDDGDEETSVVIVGKISFCPKDVLGHGAEGTIVYRGMFDNRDVAVKRILPECFSFADREVQLLRESDEHPNVIRYFCTEKDRQFQYIAIELCAATLQEYVEQKDFAHLGLEPITLLQQTTSGLAHLHSLNIVHRDLKPHNILISMPNAHGKIKAMISDFGLCKKLAVGRHSFSRRSGVPGTEGWIAPEMLSEDCKENPTYTVDIFSAGCVFYYVISEGSHPFGKSLQRQANILLGACSLDCLHPEKHEDVIARELIEKMIAMDPQKRPSAKHVLKHPFFWSLEKQLQFFQDVSDRIEKESLDGPIVKQLERGGRAVVKMDWRENITVPLQTDLRKFRTYKGGSVRDLLRAMRNKKHHYRELPAEVRETLGSLPDDFVCYFTSRFPHLLAHTYRAMELCSHERLFQPYYFHEPPEPQPPVTPDAL
modifications: phosphorylated (fully phosphorylated fraction, verified by LC-MS); the phosphorylated residues are not given
notes: Human IRE1α (inositol-requiring enzyme 1 alpha), kinase and RNase domain, residues 547-977; Fully phosphorylated fraction separated from the unphosphorylated protein on the anion exchange column; also called p-IRE1α; phosphorylated IRE1α
binding result: binds
